{"source": "the supplement of paper PMC12764529", "key": {"[1]": {"assay": "folding stability dG unfold from trypsin proteolysis; higher = more stable", "method": "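Folding stability of de novo designed mini-proteins (<80 aa, no Cys; designed by TrROS, TrMRF, ProteinMPNN and the joint model) was measured by cDNA display proteolysis with trypsin and chymotrypsin. Each protease was used at 11 concentrations in a threefold dilution series plus a no-protease condition. K50 was inferred by Bayesian fitting of sequencing counts, and dG unfold was derived against a sequence-predicted unfolded-state K50 (Tsuboyama et al. method). Sequences shown include variable-length N-terminal GS-type padding (SAGGSAGG...) inside a display construct carrying a PA tag. Rows were kept only if the AF2 dimer inter-PAE was >15, to exclude likely homo-oligomers.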"}, "[2]": {"assay": "folding stability dG unfold from chymotrypsin proteolysis; higher = more stable", "method_in_brief": "(§1)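 Sequencing followed digestion of designed mini-proteins with trypsin and chymotrypsin, each at 11 concentrations in threefold dilutions together with a no-protease condition. The mini-proteins were under 80 residues, had no cysteine, sat in a PA-tagged cDNA display construct, and were kept only if AlphaFold2 dimer inter-PAE was above 15. From the counts, Bayesian fitting gave K50, and unfolding free energy was derived against a sequence-predicted unfolded-state K50 and a shared folded-state K50, per protease or combined.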"}, "[3]": {"assay": "folding stability dG unfold (combined trypsin and chymotrypsin); higher = more stable", "method_in_brief": "as §1"}}, "note": "± gives the half width of the 95% confidence interval."}
{"sequence": "AAPEGAVVTFDDKEITVAPDETLYLVNGKLYTKSEIPAVLKQLSPETEYTELTVAGDTGEVETETKHIYRPS [r1_304_JUSTAS]", "values": [{"measurement": "folding stability dG unfold", "setting": "[1]", "result": "3.63 ± 0.406", "unit": "kJ/mol"}, {"measurement": "folding stability dG unfold", "setting": "[2]", "result": "6.3 ± 0.502", "unit": "kJ/mol"}, {"measurement": "folding stability dG unfold", "setting": "[3]", "result": "5.25 ± 0.586", "unit": "kJ/mol"}]}
{"sequence": "ADFRVTEESPEGVVTQTTTVALPDGTSRTLTYSYSKDASLTSVTVSYTPDSVTTTTTPVTPVPPGSPELAGS [r1_53_JUSTAS]", "values": [{"measurement": "folding stability dG unfold", "setting": "[1]", "result": "-1.72 ± 0.711", "unit": "kJ/mol"}, {"measurement": "folding stability dG unfold", "setting": "[2]", "result": "1.01 ± 0.795", "unit": "kJ/mol"}, {"measurement": "folding stability dG unfold", "setting": "[3]", "result": "0.41 ± 0.544", "unit": "kJ/mol"}]}
{"sequence": "ARELPVEEIREAVREFLRKHGFRVVSEEVVELPDGSVLVFVEAEPEDKSTRYRLVITRPVDGSVRLVIEPVS [r1_460_TrMRF]", "values": [{"measurement": "folding stability dG unfold", "setting": "[1]", "result": "11.1 ± 0.184", "unit": "kJ/mol"}, {"measurement": "folding stability dG unfold", "setting": "[2]", "result": "15.01 ± 0.046", "unit": "kJ/mol"}, {"measurement": "folding stability dG unfold", "setting": "[3]", "result": "13.74 ± 0.117", "unit": "kJ/mol"}]}
{"sequence": "AVTVTVEPVGDALVVTVDLPRADGSPVRVVALFDPDGTVARVLVARSDPGPPRFVEVPAAPASDPVLLAAGS [r1_301_TrMRF]", "values": [{"measurement": "folding stability dG unfold", "setting": "[1]", "result": "0.961 ± 0.837", "unit": "kJ/mol"}, {"measurement": "folding stability dG unfold", "setting": "[2]", "result": "5.77 ± 0.586", "unit": "kJ/mol"}, {"measurement": "folding stability dG unfold", "setting": "[3]", "result": "4.15 ± 0.544", "unit": "kJ/mol"}]}
{"sequence": "DDWVTLPVEIWIPVRNPDGKPLTPEQVKETANSIRNELARNHGIDVEVDVKVEPVGPNGYYRINATVTIRPS [r1_231_TrROS]", "values": [{"measurement": "folding stability dG unfold", "setting": "[1]", "result": "9.35 ± 0.418", "unit": "kJ/mol"}, {"measurement": "folding stability dG unfold", "setting": "[2]", "result": "12.5 ± 0.23", "unit": "kJ/mol"}, {"measurement": "folding stability dG unfold", "setting": "[3]", "result": "11.4 ± 0.586", "unit": "kJ/mol"}]}
{"sequence": "DIDIETHPNGTILIKVPRNLLDEIKDILKENGYNVKITGIDPDWGYIRFPLKPVPPPPPKPSPEDAEEQGDS [r1_78_TrROS]", "values": [{"measurement": "folding stability dG unfold", "setting": "[1]", "result": "7.35 ± 0.343", "unit": "kJ/mol"}, {"measurement": "folding stability dG unfold", "setting": "[2]", "result": "8.95 ± 0.172", "unit": "kJ/mol"}, {"measurement": "folding stability dG unfold", "setting": "[3]", "result": "7.92 ± 0.586", "unit": "kJ/mol"}]}
{"sequence": "DMEPEPFTIELPNVKIEVQVYRTPNKLSVNAPIEFPNGKNLTISFKYEPTPDGIKLEISIMIPKKAIEKLLS [r1_153_TrROS]", "values": [{"measurement": "folding stability dG unfold", "setting": "[1]", "result": "9.75 ± 0.406", "unit": "kJ/mol"}, {"measurement": "folding stability dG unfold", "setting": "[2]", "result": "14.4 ± 0.418", "unit": "kJ/mol"}, {"measurement": "folding stability dG unfold", "setting": "[3]", "result": "13 ± 1.26", "unit": "kJ/mol"}]}
{"sequence": "DRIEIDVEMYDGYFYKIEIRWPGNGEPRELMFPGSLSEAKDFAEDLIQEQHPGAPVDEIDVEPVPMPPGDFS [r1_80_TrROS]", "values": [{"measurement": "folding stability dG unfold", "setting": "[1]", "result": "2.86 ± 0.837", "unit": "kJ/mol"}, {"measurement": "folding stability dG unfold", "setting": "[2]", "result": "8.42 ± 0.209", "unit": "kJ/mol"}, {"measurement": "folding stability dG unfold", "setting": "[3]", "result": "7.07 ± 0.795", "unit": "kJ/mol"}]}
{"sequence": "DYKIKIPVARFPDGYWYIRAEIEDPDGETHEYEYPIPMPPGDTFDIDLPEDEPYKIKKIWIYHNGKPQPITS [r1_70_TrROS]", "values": [{"measurement": "folding stability dG unfold", "setting": "[1]", "result": "3.86 ± 0.46", "unit": "kJ/mol"}, {"measurement": "folding stability dG unfold", "setting": "[2]", "result": "5.7 ± 0.628", "unit": "kJ/mol"}, {"measurement": "folding stability dG unfold", "setting": "[3]", "result": "4.87 ± 0.669", "unit": "kJ/mol"}]}
{"sequence": "EEIIEKLKEEGYEIVSVSIKEVNGKKKIFIAVRRKDKPEYLLVEIDLENKEVKIKKVKKFPKGESIEDILSS [r1_383_TrROS_Hall]", "values": [{"measurement": "folding stability dG unfold", "setting": "[1]", "result": "12.3 ± 0.837", "unit": "kJ/mol"}, {"measurement": "folding stability dG unfold", "setting": "[2]", "result": "16.7 ± 0.962", "unit": "kJ/mol"}, {"measurement": "folding stability dG unfold", "setting": "[3]", "result": "14.9 ± 1.13", "unit": "kJ/mol"}]}
{"sequence": "EKALEAARELARKLAEELGVEVEVRVKKVSVLNENGELIAEVEVEITVRPLPPPVVEEEEVEEEEVEFEEES [r1_318_TrROS_Hall]", "values": [{"measurement": "folding stability dG unfold", "setting": "[1]", "result": "7.62 ± 0.418", "unit": "kJ/mol"}, {"measurement": "folding stability dG unfold", "setting": "[2]", "result": "9.1 ± 0.711", "unit": "kJ/mol"}, {"measurement": "folding stability dG unfold", "setting": "[3]", "result": "8.32 ± 0.962", "unit": "kJ/mol"}]}
{"sequence": "FEELRNLPGLSLTPLAEEGEVRVYRLSLPPSVLAARGLPGVTVTVTVFPDGSYTVLPDDVPALEAAGLVVES [r1_256_JUSTAS]", "values": [{"measurement": "folding stability dG unfold", "setting": "[1]", "result": "4.39 ± 0.0837", "unit": "kJ/mol"}, {"measurement": "folding stability dG unfold", "setting": "[2]", "result": "10.2 ± 0.155", "unit": "kJ/mol"}, {"measurement": "folding stability dG unfold", "setting": "[3]", "result": "8.5 ± 0.188", "unit": "kJ/mol"}]}
{"sequence": "FRFTIPLPDGKKIIIDYRPMPDGNYMFDVKLQLPNGKERTIPIMVPREEFPGMPMEEMAETMVKEALKKLKS [r1_92_TrROS]", "values": [{"measurement": "folding stability dG unfold", "setting": "[1]", "result": "11 ± 0.628", "unit": "kJ/mol"}, {"measurement": "folding stability dG unfold", "setting": "[2]", "result": "14.2 ± 0.544", "unit": "kJ/mol"}, {"measurement": "folding stability dG unfold", "setting": "[3]", "result": "13.8 ± 1.09", "unit": "kJ/mol"}]}
{"sequence": "FTMDEMKELADNIADNLAKEDGYKIKSVNIDATIPIPVYMKVRPDPNGEPRWEMHWMPIKVKINVEIKPPNS [r1_91_TrROS]", "values": [{"measurement": "folding stability dG unfold", "setting": "[1]", "result": "8.45 ± 0.753", "unit": "kJ/mol"}, {"measurement": "folding stability dG unfold", "setting": "[2]", "result": "10.7 ± 0.377", "unit": "kJ/mol"}, {"measurement": "folding stability dG unfold", "setting": "[3]", "result": "10.7 ± 1.51", "unit": "kJ/mol"}]}
{"sequence": "GEERTFSLWVKTKSPQEARQLQEKIKDILRGPGYEVKIDDVEVSPNGWMKVNITMRPGMPQDRLRDALRKIS [r1_485_TrROS]", "values": [{"measurement": "folding stability dG unfold", "setting": "[1]", "result": "16.4 ± 0.343", "unit": "kJ/mol"}, {"measurement": "folding stability dG unfold", "setting": "[2]", "result": "21.9 ± 0.251", "unit": "kJ/mol"}, {"measurement": "folding stability dG unfold", "setting": "[3]", "result": "20.9 ± 0.293", "unit": "kJ/mol"}]}
{"sequence": "GMMPEVKEYEVVVEVSLSDPSFASMTPEELAERAVAEVAAKPDFDPVEVEILSVKELPDGTYVVKVRITVRS [r1_484_JUSTAS]", "values": [{"measurement": "folding stability dG unfold", "setting": "[1]", "result": "18.8 ± 0.837", "unit": "kJ/mol"}, {"measurement": "folding stability dG unfold", "setting": "[2]", "result": "13.2 ± 0.502", "unit": "kJ/mol"}, {"measurement": "folding stability dG unfold", "setting": "[3]", "result": "16.4 ± 0.586", "unit": "kJ/mol"}]}
{"sequence": "GPSPVSVSTSTSTSLSTVGNTPVLVTTTTTTTTTLSPDPTDPSVTTTTTTTTTTTTVYDPANGKPLSTTTSS [r1_406_JUSTAS]", "values": [{"measurement": "folding stability dG unfold", "setting": "[1]", "result": "7.64 ± 0.331", "unit": "kJ/mol"}, {"measurement": "folding stability dG unfold", "setting": "[2]", "result": "7.8 ± 0.247", "unit": "kJ/mol"}, {"measurement": "folding stability dG unfold", "setting": "[3]", "result": "7.65 ± 0.586", "unit": "kJ/mol"}]}
{"sequence": "GRMYIVKIEIKVKRRDPEEGETRERKLEVHVIFPPNDPDALEKADEIARNLAEEDGITDVKVKIYPIRLPDS [r1_346_TrROS]", "values": [{"measurement": "folding stability dG unfold", "setting": "[1]", "result": "6.21 ± 0.213", "unit": "kJ/mol"}, {"measurement": "folding stability dG unfold", "setting": "[2]", "result": "7.92 ± 0.305", "unit": "kJ/mol"}, {"measurement": "folding stability dG unfold", "setting": "[3]", "result": "7.28 ± 0.92", "unit": "kJ/mol"}]}
